Experimental data reported in paper PMC5614712 (Biochemistry and Biophysics Reports, 2017).

Target: the molecule itself
Test: crystal structure

B1: Y93H ttCK (uridine-cytidine kinase TTHA0578 of Thermus thermophilus HB8, Tyr93 replaced by His) (enzyme)
chain: MSAPKPFVIGIAGGTASGKTTLAQALARTLGERVALLPMDHYYKDLGHLPLEERLRVNYDHPDAFDLALYLEHAQALLRGLPVEMPVYDFRAHTRSPRRTPVRPAPVVILEGILVLYPKELRDLMDLKVFVDADADERFIRRLKRDVLERGRSLEGVVAQYLEQVKPMHLHFVEPTKRYADVIVPRGGQNPVALEMLAAKALARLARMGAA
- stoichiometry N: 4
